Assay results published in patent US20190077860A1 (EISAI R AND D MANAGEMENT, published 2019).
Positions count from the first letter of the chain named.

B1: humanized antibody No. 140 (antibody, human IgG2)
heavy: QVQLVQSGSELKKPGASVKVSCKASGYTFTDYSMHWVRQAPGQGLKWMGWINTETGEPTYAQGFTGRFVFSLDTSVSTAYLQISSLKAEDTAVYYCARIPLYYYGSRYWYFDVWGQGTTVTVSSASTKGPSVFPLAPSSRSTSESTAALGCLVKDYFPEPVTVSWNSGALTSGVHTFPAVLQSSGLYSLSSVVTVPSSNFGTQTYTCNVDHKPSNTKVDKTVERKSCVECPPCPAPPAAAPSVFLFPPKPKDTLMISRTPEVTCVVVDVSHEDPEVQFNWYVDGVEVHNAKTKPREEQFNSTFRVVSVLTVVHQDWLNGKEYKCKVSNKGLPAPIEKTISKTKGQPREPQVYTLPPSREEMTKNQVSLTCLVKGFYPSDIAVEWESNGQPENNYKTTPPMLDSDGSFFLYSKLTVDKSRWQQGNVFSCSVMHEALHNHYTQKSLSLSPG
light: DIQMTQSPSSLSASVGDRVTITCRASENIYRNLAWYQQKPGKAPKLLVYAATNLADGVPSRFSGSGSGTDYTLTISSLQPEDFATYYCQHFWGTPWTFGQGTKVEIKRTVAAPSVFIFPPSDEQLKSGTASVVCLLNNFYPREAKVQWKVDNALQSGNSQESVTEQDSKDSTYSLSSTLTLSKADYEKHKVYACEVTHQGLSSPVTKSFNRGEC
notes: human Ig kappa; also called L1-4/HA2
B2: humanized antibody No. 145 (antibody, human IgG2)
heavy: B1 heavy with Q62D, G63D, T65K
light: B1 light with V48L, P80S
notes: human Ig kappa; also called L1-5/HK2
B3: humanized antibody No. 144 (antibody, human IgG2)
heavy: B1 heavy with K46E, Q62D, G63D, T65K
light: B1 light with K45Q, V48L
notes: human Ig kappa; also called L1-6/HK1
B4: humanized antibody No. 160 (antibody, human IgG2)
heavy: B1 heavy with V2I, Q62D, G63D, T65K
light: B1 light with K45Q, V48L
notes: human Ig kappa; also called L1-6/HK4
B5: humanized antibody No. 154 (antibody, human IgG2)
heavy: B1 heavy with K46E, Q62D, G63D, T65K
light: B1 light with V48L, P80S
notes: human Ig kappa; also called L1-5/HK1
B6: humanized antibody No. 152 (antibody, human IgG2)
heavy: B1 heavy with K46E
light: B1 light with V48L, P80S
notes: human Ig kappa; also called L1-5/HA1
B7: humanized antibody No. 151 (antibody, human IgG2)
heavy: B1 heavy with V2I
light: B1 light with V48L, P80S
notes: human Ig kappa; also called L1-5/HA4
B8: humanized antibody No. 138 (antibody, human IgG2)
heavy: B1 heavy with V2I
light: B1 light
notes: human Ig kappa; also called L1-4/HA4
B9: humanized antibody No. 159 (antibody, human IgG2)
heavy: B1 heavy with Q62D, G63D, T65K
light: B1 light with K45Q, V48L
notes: human Ig kappa; also called L1-6/HK2
B10: humanized antibody No. 156 (antibody, human IgG2)
heavy: B1 heavy with V2I
light: B1 light with K45Q, V48L
notes: human Ig kappa; also called L1-6/HA4
B11: humanized antibody No. 153 (antibody, human IgG2)
heavy: B1 heavy
light: B1 light with V48L, P80S
notes: human Ig kappa; also called L1-5/HA2
B12: humanized antibody No. 142 (antibody, human IgG2)
heavy: B1 heavy with Q62D, G63D, T65K
light: B1 light
notes: human Ig kappa; also called L1-4/HK2
B13: humanized antibody No. 158 (antibody, human IgG2)
heavy: B1 heavy
light: B1 light with K45Q, V48L
notes: human Ig kappa; also called L1-6/HA2
B14: humanized antibody No. 139 (antibody, human IgG2)
heavy: B1 heavy with K46E
light: B1 light
notes: human Ig kappa; also called L1-4/HA1
B15: humanized antibody No. 143 (antibody, human IgG2)
heavy: B1 heavy with V2I, Q62D, G63D, T65K
light: B1 light
notes: human Ig kappa; also called L1-4/HK4
B16: humanized antibody No. 155 (antibody, human IgG2)
heavy: B1 heavy with V2I, Q62D, G63D, T65K
light: B1 light with V48L, P80S
notes: human Ig kappa; also called L1-5/HK4
B17: humanized antibody No. 141 (antibody, human IgG2)
heavy: B1 heavy with K46E, Q62D, G63D, T65K
light: B1 light
notes: human Ig kappa; also called L1-4/HK1
B18: humanized antibody No. 157 (antibody, human IgG2)
heavy: B1 heavy with K46E
light: B1 light with K45Q, V48L
notes: human Ig kappa; also called L1-6/HA1

Molecular target: T1, human EphA6 extracellular region-SEAP-His protein (human, UniProt Q9UF33 23-550)
T1 construct: extracellular domain; also called hEphA6-SEAP-His
T1 sequence (looked up): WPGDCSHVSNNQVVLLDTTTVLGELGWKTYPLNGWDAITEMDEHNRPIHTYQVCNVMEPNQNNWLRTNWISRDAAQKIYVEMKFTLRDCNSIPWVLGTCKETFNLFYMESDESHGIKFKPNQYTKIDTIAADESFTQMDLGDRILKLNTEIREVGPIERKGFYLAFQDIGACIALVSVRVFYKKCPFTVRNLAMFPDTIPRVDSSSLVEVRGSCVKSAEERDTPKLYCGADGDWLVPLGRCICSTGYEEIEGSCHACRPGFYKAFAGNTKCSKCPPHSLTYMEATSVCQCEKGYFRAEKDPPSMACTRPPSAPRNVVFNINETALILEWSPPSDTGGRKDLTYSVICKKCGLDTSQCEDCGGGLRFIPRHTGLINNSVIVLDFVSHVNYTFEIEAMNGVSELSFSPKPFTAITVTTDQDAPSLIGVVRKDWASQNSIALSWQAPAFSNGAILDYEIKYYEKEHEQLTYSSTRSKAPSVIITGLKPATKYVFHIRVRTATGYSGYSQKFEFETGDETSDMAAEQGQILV
Assay: ELISA

In order of falling “A450 as % of hEphA4-SEAP-His” value:
1. B1  10.8%
2. B8  10.2%
3. B13  10%
4. B14  10%
5. B7  9.9%
6. B15  9.9%
7. B12  9.7%
8. B17  9%
9. B18  9%
10. B10  8.9%
11. B4  8.7%
12. B11  8.7%
13. B2  8.6%
14. B5  8.4%
15. B6  8.3%
16. B3  8.1%
17. B9  7.6%
18. B16  7.2%

Molecular target: T2, human EphB2 extracellular region-SEAP-His protein (human, UniProt P29323 19-543)
T2 construct: extracellular domain; also called hEphB2-SEAP-His
T2 sequence (looked up): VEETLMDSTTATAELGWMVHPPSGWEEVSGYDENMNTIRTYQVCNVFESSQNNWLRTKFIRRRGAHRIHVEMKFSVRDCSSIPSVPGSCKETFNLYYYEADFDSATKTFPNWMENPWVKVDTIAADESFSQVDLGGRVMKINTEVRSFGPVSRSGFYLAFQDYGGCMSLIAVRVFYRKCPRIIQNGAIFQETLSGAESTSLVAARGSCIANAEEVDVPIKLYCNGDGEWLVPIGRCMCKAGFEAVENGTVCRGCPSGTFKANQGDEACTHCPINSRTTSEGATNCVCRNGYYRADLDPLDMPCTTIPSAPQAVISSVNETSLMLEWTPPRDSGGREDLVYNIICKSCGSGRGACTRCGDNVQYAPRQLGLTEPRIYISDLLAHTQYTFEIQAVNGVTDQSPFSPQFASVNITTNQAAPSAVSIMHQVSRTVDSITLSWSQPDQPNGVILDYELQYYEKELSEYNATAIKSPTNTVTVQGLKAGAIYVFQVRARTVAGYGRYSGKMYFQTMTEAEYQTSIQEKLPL
Assay: ELISA

In order of rising “A450 as % of hEphA4-SEAP-His” value:
1. B8  5.2%
2. B17  5.2%
3. B1  5.3%
4. B9  5.4%
5. B10  5.5%
6. B16  5.5%
7. B12  5.6%
8. B3  5.7%
9. B14  5.7%
10. B6  5.8%
11. B15  5.8%
12. B11  5.9%
13. B4  6.2%
14. B5  6.2%
15. B18  6.2%
16. B13  6.3%
17. B2  6.7%
18. B7  7%

Molecular target: T3, human EphA3 extracellular region-SEAP-His protein (human, UniProt P29320 21-541)
T3 construct: extracellular domain; also called hEphA3-SEAP-His
T3 sequence (looked up): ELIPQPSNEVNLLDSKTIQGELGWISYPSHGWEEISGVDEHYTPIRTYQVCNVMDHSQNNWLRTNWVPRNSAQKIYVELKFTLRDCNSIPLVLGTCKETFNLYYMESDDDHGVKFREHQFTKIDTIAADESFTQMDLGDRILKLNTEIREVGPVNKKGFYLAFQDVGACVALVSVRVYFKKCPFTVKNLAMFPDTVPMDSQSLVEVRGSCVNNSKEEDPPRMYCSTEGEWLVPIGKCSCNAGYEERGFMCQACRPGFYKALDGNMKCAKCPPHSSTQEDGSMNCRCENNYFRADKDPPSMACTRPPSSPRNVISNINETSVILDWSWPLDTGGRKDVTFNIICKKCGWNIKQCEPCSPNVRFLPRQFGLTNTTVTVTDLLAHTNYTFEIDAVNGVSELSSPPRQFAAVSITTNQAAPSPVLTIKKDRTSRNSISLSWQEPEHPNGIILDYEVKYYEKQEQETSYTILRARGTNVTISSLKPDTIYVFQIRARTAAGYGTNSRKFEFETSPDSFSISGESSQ
Assay: ELISA

In order of rising “A450 as % of hEphA4-SEAP-His” value:
1. B8  4.9%
2. B17  5.3%
3. B9  5.4%
4. B1  5.5%
5. B12  5.5%
6. B15  5.6%
7. B16  5.6%
8. B3  5.7%
9. B10  5.7%
10. B6  5.8%
11. B14  5.9%
12. B11  6.1%
13. B4  6.2%
14. B5  6.2%
15. B18  6.4%
16. B13  6.5%
17. B2  6.6%
18. B7  6.9%

Molecular target: T4, human EphA10 extracellular region-SEAP-His protein (human, UniProt Q5JZY3 34-565)
T4 construct: extracellular domain; also called hEphA10-SEAP-His
T4 sequence (looked up): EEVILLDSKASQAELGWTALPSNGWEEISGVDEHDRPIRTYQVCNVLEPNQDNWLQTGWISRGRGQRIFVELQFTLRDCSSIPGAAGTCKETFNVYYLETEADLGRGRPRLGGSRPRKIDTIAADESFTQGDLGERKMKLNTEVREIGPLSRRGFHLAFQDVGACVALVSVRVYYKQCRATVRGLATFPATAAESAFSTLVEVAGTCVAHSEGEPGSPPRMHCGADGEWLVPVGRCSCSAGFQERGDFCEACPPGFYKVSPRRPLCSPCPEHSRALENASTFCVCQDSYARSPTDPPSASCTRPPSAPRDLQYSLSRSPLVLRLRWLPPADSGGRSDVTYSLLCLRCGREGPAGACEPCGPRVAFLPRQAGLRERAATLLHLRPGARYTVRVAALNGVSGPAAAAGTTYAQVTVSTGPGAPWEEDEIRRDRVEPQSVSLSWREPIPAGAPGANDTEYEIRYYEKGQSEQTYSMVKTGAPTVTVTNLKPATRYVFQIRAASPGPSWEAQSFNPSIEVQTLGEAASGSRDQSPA
Assay: ELISA

In order of rising “A450 as % of hEphA4-SEAP-His” value:
1. B4  5%
2. B8  5%
3. B1  5.2%
4. B15  5.2%
5. B17  5.2%
6. B9  5.3%
7. B10  5.3%
8. B12  5.4%
9. B16  5.4%
10. B14  5.5%
11. B3  5.7%
12. B6  5.8%
13. B5  5.9%
14. B11  6%
15. B18  6.1%
16. B13  6.4%
17. B2  6.5%
18. B7  6.6%
